Results published in article PMC4615246.

Target: T1, LacI-CFP-Nup50 (human), Q9UKX7
T1 chain: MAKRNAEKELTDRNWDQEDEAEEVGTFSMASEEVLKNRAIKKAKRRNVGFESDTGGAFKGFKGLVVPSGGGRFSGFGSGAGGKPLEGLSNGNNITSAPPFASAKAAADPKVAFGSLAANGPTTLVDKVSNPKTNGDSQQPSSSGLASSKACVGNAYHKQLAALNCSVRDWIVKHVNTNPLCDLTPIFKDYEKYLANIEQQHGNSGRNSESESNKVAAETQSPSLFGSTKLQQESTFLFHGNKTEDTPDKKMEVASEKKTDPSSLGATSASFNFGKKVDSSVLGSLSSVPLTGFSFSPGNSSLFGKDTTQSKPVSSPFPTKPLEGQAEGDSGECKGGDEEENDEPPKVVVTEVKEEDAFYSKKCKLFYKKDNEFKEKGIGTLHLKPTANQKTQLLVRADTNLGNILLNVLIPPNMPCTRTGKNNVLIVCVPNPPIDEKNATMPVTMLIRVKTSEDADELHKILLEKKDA
Experiment: LacI/LacO array recruitment in cells
Settings: remark: other sources report otherwise

percent of transfected cells showing colocalization: 28%
B1: Nup93 (endogenous), Q8N1F7 1-819 (natural protein)
chain: MDTEGFGELLQQAEQLAAETEGISELPHVERNLQEIQQAGERLRSRTLTRTSQETADVKASVLLGSRGLDISHISQRLESLSAATTFEPLEPVKDTDIQGFLKNEKDNALLSAIEESRKRTFGMAEEYHRESMLVEWEQVKQRILHTLLASGEDALDFTQESEPSYISDVGPPGRSSLDNIEMAYARQIYIYNEKIVNGHLQPNLVDLCASVAELDDKSISDMWTMVKQMTDVLLTPATDALKNRSSVEVRMEFVRQALAYLEQSYKNYTLVTVFGNLHQAQLGGVPGTYQLVRSFLNIKLPAPLPGLQDGEVEGHPVWALIYYCMRCGDLLAASQVVNRAQHQLGEFKTWFQEYMNSKDRRLSPATENKLRLHYRRALRNNTDPYKRAVYCIIGRCDVTDNQSEVADKTEDYLWLKLNQVCFDDDGTSSPQDRLTLSQFQKQLLEDYGESHFTVNQQPFLYFQVLFLTAQFEAAVAFLFRMERLRCHAVHVALVLFELKLLLKSSGQSAQLLSHEPGDPPCLRRLNFVRLLMLYTRKFESTDPREALQYFYFLRDEKDSQGENMFLRCVSELVIESREFDMILGKLENDGSRKPGVIDKFTSDTKPIINKVASVAENKGLFEEAAKLYDLAKNADKVLELMNKLLSPVVPQISAPQSNKERLKNMALSIAERYRAQGISANKFVDSTFYLLLDLITFFDEYHSGHIDRAFDIIERLKLVPLNQESVEERVAAFRNFSDEIRHNLSEVLLATMNILFTQFKRLKGTSPSSSSRPQRVIEDRDSQLRSQARTLITFAGMIPYRTSGDTNARLVQMEVLMN
